We go through 8 proteins from publication PMC9901791, “Structural insights into catalytical capability for CPT11 hydrolysis and substrate specificity of a novel marine microbial carboxylesterase, E93” (Frontiers in Microbiology, 2023).

A word on the Km: it is the concentration of substrate that gives half-maximal velocity.

Substrate in data set [1]: CCc1c2c(nc3ccc(OC(=O)N4CCC(N)CC4)cc13)-c1cc3c(c(=O)n1C2)COC(=O)[C@]3(O)CC
The experiment in a line: purified protein. As to conditions: 5-200 uM substrate, 50 mM HEPES pH 7.4, 37 °C, 10 h.

Substrate in data set [2]: CCCC(=O)Oc1ccc([N+](=O)[O-])cc1
The experiment in a line: purified protein. The settings on record: Tris-HCl pH 7.5, 45 °C. The class given is biochemical, Altericroceibacterium indicum.

Substrate in data set [3]: CCCCCC(=O)Oc1ccc([N+](=O)[O-])cc1
The experiment in a line: purified protein. Type of data set: biochemical, Altericroceibacterium indicum. The settings on record: Tris-HCl pH 7.5, 45 °C.

Substrate in data set [4]: CCc1c2c(nc3ccc(OC(=O)N4CCC(N)CC4)cc13)-c1cc3c(c(=O)n1C2)COC(=O)[C@]3(O)CC
The experiment in a line: HPLC of SN38 formation. The class given is biochemical, Altericroceibacterium indicum. As to conditions: 5-200 uM substrate, 50 mM HEPES pH 7.4, 37 °C, 10 h. From the text:
(§1) HPLC of SN38 formation on E93 | the kinetic parameters for the conversion of CPT11 and NPC were obtained from the HPLC

Substrate in data set [5]: CCc1c2c(nc3ccc(OC(=O)N4CCC(N5CCCCC5)CC4)cc13)-c1cc3c(c(=O)n1C2)COC(=O)[C@]3(O)CC
The experiment in a line: HPLC of SN38 formation. The settings on record: pH 7.4; 37.0 °C. The class given is biochemical, Altericroceibacterium indicum.
Source text: as §1

Where a chain is given by its changes, count along the chain named. Names may count otherwise.

B1: E93 (Altericroceibacterium indicum; E428A) (protein)
chain: MARTRYGPVIGKVEQGALAFKGIPYGAPTSGSGRFMPPTPPQPWSTPLRAFDYGPTAPQSDPQDALESGAADARESEDCLTLNVWTPSLNDQRKRPVMVWLHGGGLWRLSAAGDYQAGTHLAAHSDVVMVSPNHRLNVLAHAYLDEYDPAFAGSSSAGMLDLVLALKWVRDNIEEFGGDPDNVTIFGQSGGGQKVSFLMAMPAAAGLFHKAIIQSGPAPLALEKPYARELSARLLTLLDIPKNRVRDIQNVPLDAIMRAYYQIFEELGGFGVMGVIQDFAPVVDDVALPQHPFWNGASPLSRDVPLMIGCTRTEMTEYFLASNPGAAKRDFAAVTAQLEPVFGMQAPAVVAHYRATHPTASPWEVDALIRSDWPTRLFTQRIADEQVKLGGAPVWMYRMDWQTTARDGLLMSPHAIDIPFVLDTVGTAPVEPGQLAEQQRMMQQMNNAWVSFARNGNPQNKYIPPWQPYNSTSRPTMIFNLHSHMANDPDGSDLAFLKKDLANLEVVAGGVTH
Turning to B1, in the data set “purified protein [1]”, the Michaelis-Menten constant (Km) amounted to 85.07 ± 9.4 µM and the kcat was 23.80 ± 2.34 ×10^-3 min^-1.

B2: E93 (Altericroceibacterium indicum; Y318A) (protein)
chain: B1 chain with Y318A, A428E
B2: in “purified protein [1]”, the Km was 55.47 ± 5.17 µM and the kcat is reported as 40.87 ± 3.07 ×10^-3 min^-1.

B3: E93 (Altericroceibacterium indicum; T375I) (protein)
chain: B1 chain with T375I, A428E
notes: recombinant in E. coli BL21 (DE3), N-terminal His6-SUMO tag (pSMT3), Ni-NTA purified; 57 kDa; 510 residues modelled; catalytic triad S189, E314, H414
In the case of B3, the Km in the data set “purified protein [2]” came to 100 ± 10 µM; in the data set “purified protein [3]”, 110 ± 10 µM.

B4: E93 (Altericroceibacterium indicum; T375A) (protein)
chain: B1 chain with T375A, A428E
notes: as for B3
Turning to B4, the Km in the data set “purified protein [3]” is 130 ± 10 µM.

B5: E93 (Altericroceibacterium indicum; W107A) (protein)
chain: B1 chain with W107A, A428E
notes: as for B3
As for B5, the Michaelis-Menten constant (Km) in “purified protein [3]” came to 210 ± 18 µM.

B6: E93 (Altericroceibacterium indicum; M273A) (protein)
chain: B1 chain with M273A, A428E
notes: as for B3
As to B6, in “purified protein [3]”, the Km was 390 ± 25 µM.

B7: E93 (Altericroceibacterium indicum; Q193A) (protein)
chain: B1 chain with Q193A, A428E
notes: as for B3
As for B7, the Km in “purified protein [3]” came to 100 ± 10 µM.

B8: E93 (Altericroceibacterium indicum) (protein)
chain: B1 chain with A428E
notes: as for B3
Take B8: the Km in “HPLC of SN38 formation [4]” was determined as 75.66 ± 6.03 µM; in “HPLC of SN38 formation [5]”, 70.17 ± 7.07 µM; in “purified protein [2]” (0.02-3.50 mM substrate), 210 ± 20 µM; in “purified protein [3]”, 180 ± 11 µM. Moreover, the kcat in “HPLC of SN38 formation [4]” was 35.40 ± 1.70 ×10^-3 min^-1.
